The record followed here is the DeepSol protein solubility set.

A short description of the data set: soluble on expression in E. coli; label from the status in PepcDB or PDB records.
For “MSLNNPTPKIDQTNNIVIGQKINPDKMHRAKEFRRQMTPAEKILWQHLRGNRLNGLHFRRQQIIDGFIADFYCHAARLVIEVDGKIHELQAEYDAERDRVLLARGLRLLRVKNEEVVQEIDQVLMLISEVCCEETEGHHHHHH”, the “soluble on expression in E. coli” value is given as “soluble”. With “MSLNNYKIFISAGESSGDIHGANLMRSLLKKNPNITFYGLGKERMNEAGLHCLCDMKTKSLMWLHALTELSAFLRMKKDCVRFFQHETPCAVILIDYCGFNFQLARAAKKLKIPVIYYITPQLWAHGPWRIKKLRKLVDFLIVIYPFEKSFYETSGLPVTYVGHPLFDELDRERRINNHLSMEEKQVGEYIVSLLPGSRKQEIIRLLPLLLRAAKQIKQTIPSIKILVSCTSEQYFSLIRLIVEASHLPAEIIVGCVRKIIQSSDICLAGSGTVTLQIAYYHTPMLIVYKISPFAYFIARPFLTTPYIGLVNILANKMIVPETLMCSNNYSRLANQAIELLRNNQKRHLCIENLRSLMDDIGKPGASERAAEEIFRFLRQETEGHHHHHH” the entry was “not soluble”; with “MSLNPPLPHFRYHPEPLASGSIEASATTCQCCGKARGYVYTGSPYSRHELPPGSLCPWCIADGSAAARYEASFSDDYPLLDAGVAADIVTEVCERTPGYTSWQRERWLVCCEDACAFRGDAGREEIGQLGAEGLAQRFADFAWPAITWQRLVDAYTPGGNPAIYRFDCLHCGQAHYDLDFTEGGSHHHHHH”, “soluble”. With “MSLNSAIKDIEIIEMGEKLRETSSPWSSTILLVKLTSADGLVGYGEAPTTLMTLPVLESMKEVARVFKGKDFFNVEQNVFDFYRNSFYLPVSMEATSALSAFEIASWDLIGKELGTPVYKLIGGEVNHNIRAYANGWYNDCVTPDDFVKKAKEVVKMGFTAMKFDPFGDNYDTITNEGIENARNIVGALRSEFGEKVDLLIEYHGRFSKIAAIKAGMALEEFKPYFYEEPLHPDLDHDLLDLKQYYKVPIALGERVLNKKIFARFISQKLVDIIQPDLTNSGGILEAKKIAAIADGFGIPIAPHNAFGPIQTAATLNVDTTLTNFAIQESFEMFWPDWKKNLMASGYKLENGYFRLTGDAGIGKVNESIVEKYQVSGMEPFDDKEPPWVVSGTFKHYQQKEGHHHHHH” the entry was “not soluble”; with “MSLNSFNLEGKVALVTGCKRGIGKAMAVALAQAGVDVIGVSASLESEGSDVAKAVEATGRKFSAYKCDFNSREAIYTFIEQVKAAHPVIDILVNNAGTILRAPAAEHGDSLWDEVINVNLNSQFILSRELGREMVKRGSGKVIFTASLLTFQGGITVPGYAASKGAIGQLTKALANEWAGSGVNVNAIAPGYIATDNTQALRDDPERATSILSRIPQNRWGKPEDFAGPVVFLASEAASYVNGSVMVVDGGWMGREGHHHHHH”, “not soluble”; with “MSLNSLLLVSRIYQQTCIDDLAQLANEVKASFVRLVNEDANSHMIGTAMSTIGRAFTQRIIELVEAELGAAPLPYCFVAFGSMGRDEQLIVTDQDNALILDDRYDVQQHGAYFAQFAELVCRGLDRCGYPLCDGEIMASNPKWRMTRKEWETCFADWIDNPNPQALLNASIFFDLDGVYGRTKWAEQLSGFIVRRARRNQRFLACLARNALNRTPPLGFFKNFVMEKDGRHNNSINLKRRGTAPLADLIRVHALAAGSRAKNSFERLDDVIEAGLLPQGKGKDLRDALEFIAMVRIRHQAIDVEQEREADNSIEPEHLSDFERRNLKDAFQILSNGQNYLKYRYQANQHFKEGHHHHHH”, “soluble”. With “MSLNSNTEKRIALISVHGDPAIEIGKEEAGGQNVYVREVGKALAQLGWQVDMFSRKVSPEQELIVHHSPLCRTIRLTAGPEEFVPRDNGFKYLPEFVQQLLRFQKENNVNYPLVHTNYWLSSWVGMQLKAIQGSKQVHTYHSLGAVKYKSIDTIPLVATKRLSVEKQVLETAERIVATSPQEQQHMRSLVSTKGYIDIVPCGTDIHRFGSIARQAARAELGIDQEAKVVLYVGRFDQRKGIETLVRAMNESQLRDTNKLKLIIGGGSTPGNSDGRERDRIEAIVQELGMTEMTSFPGRLSQDVLPAYYAAADVCVVPSHYEPFGLVAIEAMASGTPVVASDVGGLQFTVVSEKTGLLVPPKDIAAFNIAIDRILMNPQWRDELGLAARKHVTHKFGWEGVASQLDGIYTQLLTQQVKEPALVTKEGHHHHHH” the entry was “soluble”; with “MSLNTQQGLDEIERIAADETVVANVESEAEVKMAETIPVETPPAVVPSVDDSSLYIHRELSQLQFNIRVLEQALDESYPLLERLKFLLIFSSNLDEFFEIRIAGLKKQITFAREQAGADGLLPHQALARISELVHEQVSRQYRILNETLLPELAKHQIRFIRRRHWTLKIKTWVRRFFRDEIAPIITPIGLDPTHPFPLLVNKSLNFIVELEGMDAFGRDSGLAIIPAPRLLPRIIRLPEDVGGEGDNYVFLSSMIHAHADDLFPGMKVKGCYQFRLTRNADLSVDTEDVEDLARALRGELFSRRYGDAVRLEVVDTCPQNLTNYLLKQFGLSESELYKVSGPVNLTRLFSVTGLESHPELQYPPFTPAIPRLLQKKENLFNVLSKLDVLLMHPFESFTPVIDLLRQAAKDPNVLAIKQTLYRSGANSEIVDALVEAARNGKEVTAVIELRARFDEESNLQLASRLQQAGAVVIYGVVGFKTHAKMMLILRREDGELRRYAHLGTGNYHAGNARLYTDYSLLTADVALCEDLHKLFNQLIGMGKTLRMKKLLHAPFTLKKNLLEMINREAAQAALGQPAHIMAKVNSLTDPKVIRALYKASQAGVRIDLVVRGMCCLRPGIPGVSHNIHVRSIIGRFLEHSRIYYFLNGGDEKLYLSSADWMERNLDMRVETCFPVEGKKLVQRVKKELETYLTDNTQAWVLQADGSYQRLSPTGNQNPRNTQATLLEKLAAPVLTAREGHHHHHH”, “soluble”; with “MSLNTVIADFTERAGTGRVLKAEPEAIQLAPEQTALIVVDMQNAYTSIGGYLDLAGFDVSKTKPVVENIQKAVTAAHAAGIQVIYFKNGWDNQYVEAGGAGSPNFHKSNALKTMRKQPELQGKLLAKGGWDFELIDELQPKSQDIVIEKPRYSGFFNTALDSMLRARGIRNLVFVGIATNVCVESTLRDGFFLEYFGVALDDACYQAGPVEMHRASMYNIKTFFGWVSDTEGHHHHHH”, “not soluble”. With “MSLNYRFRFAPYQRPFKTPLQTHHGLWTVREGIMLSLRDERGRITQGEIVPLPWFGTETLEEAIAFCAAFGGNITSEQIAAIPDALPACQFGFETAQLNLASTENLVSLPPTKFCQLIRRSPTMFQDLQTLLQQGFRTFKLKIALDIPATEIALCQQILETLPADGRLRLDANGGLTLEQVKQWLDWGESQAKLEFIEQPLAPAHFSNLLQLNAEFQTQIALDESVSQVASLEHCYAQGWRGVFVIKLAIAGFPSRLQDVCQTKKLDFVLSTVFETAVGQRALLNFSQDFVQSRRALGMGGTQWIEGHHHHHH”, the “soluble on expression in E. coli” value is on record as “soluble”. Under “MSLPHVILTVLSTRDATGYDITKEFSASIGYFWKASHQQVYRELNKMGEQGLVTCVLEPQEGKPDRKVYSITQAGRSALGEWFDQPTAHPTVRDEFSAKLMACSVQSAEPYRLQLAELVEESRKLVAHYQEIEAAYYANPAVLDKQQRLERLTLRRNLLVRQAWIQWADEVLAELNAMA” stands “soluble”; under “MSLPINVPSGLPAVKVLAKEGIFVMTEKRAIHQDIRPLEILILNLMPDKIKTEIQLLRLLGNTPLQVNVTLLYTETHKPKHTPIEHILKFYTTFSAVKDRKFDGFIITGAPVELLPFEEVDYWEELTEIMEWSRHNVYSTMFICWAAQAGLYYFYGIPKYELPQKLSGVYKHRVAKDSVLFRGHDDFFWAPHSRYTEVKKEDIDKVPELEILAESDEAGVYVVANKSERQIFVTGHPEYDRYTLRDEYYRDIGRNLKVPIPANYFPNDDPTKTPILTWWSHAHLFFSNWLNYCIYQKTPYRLEDIHEGHHHHHH”, “soluble”; under “MSLPRGLELLIAQTILQGFDAQYGRFLEVTSGAQQRFEQADWHAVQQAMKNRIHLYDHHVGLVVEQLRCITNGQSTDAAFLLRVKEHYTRLLPITRASRLRRAFLTPCTVGYLTTARLLPSGFLSLALSQSAAFVPFPPAGQRLSPRSRLGISTDARYQRPTAAPAWQNKSRDIHYIIRHLTETLGTDNLAESHLQVANELFYRNKAAWLVGKLITPSGTLPFLLPIHQTDDGELFIDTCLTTTAEASIVFGFARSYFMVYAPLPAALVEWLREILPGKTTAELYMAIGCQKHAKTESYREYLVYLQGCNEQFIEAPGIRGMVMLVFTLPGFDRVFKVIKDRFAPQKEMSAAHVRACYQLVKEHDRVGRMADTQEFENFVLEKRHISPALMELLLQEAAEKITDLGEQIVIRHLYIERRMVPLNIWLEQVEGQQLRDAIEEYGNAIRQLAAANIFPGDMLFKNFGVTRHGRVVFYDYDEICYMTEVNFRDIPPPRYPEDELASEPWYSVSPGDVFPEEFRHWLCADPRIGPLFEEMHADLFRADYWRALQNRIREGHVEDVYAYRRRQRFSVRYGEMLFEGHHHHHH”, “not soluble”. With “MSLQARVAAPVVAKEREELVDRIEGETSAADELEKSVDELRDDVDARRREALEKSGDGDRSDLVGILSGAVEVHGPGVKLVVNDAKDVATGADGQPRGTSGFSDTGRVRDRDMQRVVNGLWESGAEAISVNGQRLTALSAIRAAGDAILVDNRPLVPPYTVLAVGDGERLSRGFQDSADGLYLHALEESYGIRTAISVADDLKLPAAPSVIVRTAQPITEKGTSEGHHHHHH” the entry was “soluble”. With “MSLQDLATLYPQKTWSVVNQQFSADQGQLAFAHANTLLALTKECQQPIIHFWTLEKTVILGMMDTKLPELTAATDQLTAAGYHYFVRNAGGLGIVADTGILNLGFYLPEVADHLSINAAYELMKTLFSETFNTSNITIEHFEVQHSYCPGEYDLSINGQKFAGIAQRRSKNGIAILLYASIEGDQQARGTLMQHFYQAGKAQQQTRWTFPDVHPETMANLADLLHQPLTVASVSQQLSASLQSNSGLTLQSDLQTLMQEADYQTQLTKNTQLLRRYQPGYQPEGHHHHHH” the entry was “soluble”. As to “MSLQFSFDPVSNAPMVSFPSTQQPDLEKLRFKFAPVLSRSFAFNGGSRTGTLYGVQVPYVDNSKEFSQYAAKLFEVYKSLGADKQFAVPTIGLINHTSTLEHNQTVNLALEAIVSELELFIESLKYSGRQQRLVDLEECLSILNCLKTVQFTLDSEEENSRAKFIDSLISWVNRTDGEPSEAVIAKVLGDGKQTPILENPYFWRLLCQLIIRGLFDQAVAAIEKSELLSYLADKCSATHTMVQDMVNLLQGYPRELEPVYREWKDLVLQLHLNWSQSEHKISIELASSLEDCLLIMCGNKSKIIYYSKTWYECYCGLMLYYIPSLQLSEEYLQLVLKEHPLDVTSPWEQACVSIITGKIYSILPVLDSLDSCTAAFTAAICEAKGLLENDLLDDGGLEVSNTGDEMFGLGNTMASYLLNQFALSIVTYEDKNLWAVAIGIIYLTPNYSDAAKRMMIAELLPHYPFQTNDDIEWMLTICAKWKLPQIARTIYRVLGQEALYLNNIIEAISNFSKAGEFEWVKEGHHHHHH”, the “soluble on expression in E. coli” value is on record as “soluble”.

In the case of “MSLQLPISQYNELLQKKLEKLTALLHPFNAPDIQVFDSPTSHYRMRAEFRIWHEQDDFYHIMFDQATLQRYRVDEFPIASMLINRMMQTLLPLLKQQEVLHKKLFQIDYLSTLSNKIIVSLLYHKTLTEEWESAAKNLKDLLEKQDFDVQIIGRASKQKICFEQDYVDEVLPVNGRNYVYRQVENSFTQPNATVNCKMLEWAIDCTQNSEGDLLELYCGNGNFSIALAQNFRKVLATEIAKPSVAAAQFNIAENKVDNLQIIRMSAEEFTQAMNGVRAFNRLKGIDLKSYECNTIFVDPPRAGLDPDTVKLVQNYDRILYISCNPHTLCDNLVELSKTHRIEKAALFDQFPYTDHMESGLWLIRKEGHHHHHH”, the “soluble on expression in E. coli” value was “soluble”.

“MSLQNKTVFVGISGGVDSAVSALLLKQQYREVIGIFMECWDNTLNNDQLGHRAFNEHKSGCSSKEDFREAQAIAQLLGIKLIKQNLVEPY”: the “soluble on expression in E. coli” value is “soluble”.
